B1: P1AD4470 CD40 IgG (antibody, V domains shown)
VH: EVQLVESGGGLVQPGGSLRLSCAASGYSFTGYYIHWVRQAPGKGLEWVARVIPNAGGTSYNQKFKGRFTLSVDNSKNTAYLQMNSLRAEDTAVYYCAREGIYWWGQGTLVTVSS
VL: DIQMTQSPSSLSASVGDRVTITCRSSQSLVHSNGNTFLHWYQQKPGKAPKLLIYTVSNRFSGVPSRFSGSGSGTDFTLTISSLQPEDFATYFCSQTTHVPWTFGQGTKVEIKR
notes: bivalent anti-human CD40 IgG1; cross-linked with anti-human Fc F(ab')2 in the functional assays; also called CD40 IgG1 PGLALA; CD40 IgG1
B2: P1AE0408 CD40 × FAP (28H1) (2 + 1) head to tail (bispecific antibody, human IgG1, kappa, L234A L235A)
heavy 1: not shown
heavy 2: EVQLVESGGGLVQPGGSLRLSCAASGYSFTGYYIHWVRQAPGKGLEWVARVIPNAGGTSYNQKFKGRFTLSVDNSKNTAYLQMNSLRAEDTAVYYCAREGIYWWGQGTLVTVSSASTKGPSVFPLAPSSKSTSGGTAALGCLVEDYFPEPVTVSWNSGALTSGVHTFPAVLQSSGLYSLSSVVTVPSSSLGTQTYICNVNHKPSNTKVDEKVEPKSCDKTHTCPPCPAPEAAGGPSVFLFPPKPKDTLMISRTPEVTCVVVDVSHEDPEVKFNWYVDGVEVHNAKTKPREEQYNSTYRVVSVLTVLHQDWLNGKEYKCKVSNKALGAPIEKTISKAKGQPREPQVCTLPPSRDELTKNQVSLSCAVKGFYPSDIAVEWESNGQPENNYKTTPPVLDSDGSFFLVSKLTVDKSRWQQGNVFSCSVMHEALHNRFTQKSLSLSPGK
light 1: DIQMTQSPSSLSASVGDRVTITCRSSQSLVHSNGNTFLHWYQQKPGKAPKLLIYTVSNRFSGVPSRFSGSGSGTDFTLTISSLQPEDFATYFCSQTTHVPWTFGQGTKVEIKRTVAAPSVFIFPPSDRKLKSGTASVVCLLNNFYPREAKVQWKVDNALQSGNSQESVTEQDSKDSTYSLSSTLTLSKADYEKHKVYACEVTHQGLSSPVTKSFNRGEC
light 2: EVQLLESGGGLVQPGGSLRLSCAASGFTFSSHAMSWVRQAPGKGLEWVSAIWASGEQYYADSVKGRFTISRDNSKNTLYLQMNSLRAEDTAVYYCAKGWLGNFDYWGQGTLVTVSSASVAAPSVFIFPPSDEQLKSGTASVVCLLNNFYPREAKVQWKVDNALQSGNSQESVTEQDSKDSTYSLSSTLTLSKADYEKHKVYACEVTHQGLSSPVTKSFNRGEC
notes: a CD40 Fab fused to the N-terminus of the FAP crossFab on the knob chain; also called CD40 × FAP 2 + 1 head-to-tail; 2 + 1 head-to-tail format

Experiments:
human CD40 [1] = target: T1, human CD40 (human, UniProt P25942 21-277); experiment: cell-based or functional assay
human CD40 [2] = target: T1, human CD40; experiment: cell-based or functional assay; remark: listed apart in the source
human CD40 [3] = target: T1, human CD40; experiment: cell-based or functional assay; remark: listed apart in the source
human CD40 [4] = target: T1, human CD40; experiment: flow cytometry, Raji cells, Alexa488 anti-huIgG
Experimental: CD40 positive cells (Raji cells) were detached from the culture bottle using Trypsin and were counted using a Casy cell counter. After pelleting at 4° C., the cells were resuspended in FACS Buffer (2.5% FCS in PBS), adjusted to 2.0E+06 cells/mL, and dispensed to 96-well PP V-bottom-plates (25 μL/well=5.0E+04Zellen/well).
The CD40 specific antibodies were adjusted to 20 μg/mL in FACS buffer, resulting in a final concentration of 10 μg/mL. […] were added to 25 μl cell suspension and incubated for 1 h at 4° C. The cells were then washed twice in FACS buffer. After washing, the cells were resuspended in 50 μL FACS-buffer containing secondary antibody (<huIgG>-Alexa488, c=10 μg/mL) and incubated 1 h at 4° C. The cells were then washed twice in FACS buffer and resuspended in 70 μl/well FACS buffer for measurement using a FACS Canto (BD, Pharmingen).

human CD40 [5] = target: T1, human CD40; experiment: flow cytometry, Daudi cells, PE anti-human Fc F(ab')2
Experimental: (§1) The binding to cell surface CD40 was tested using Daudi cells, a human B lymphoblast cell line with high expression levels of human CD40 (ATCC CCL-213). Daudi cells were cultured with 1× Dulbecco's Modified Eagle's Medium (DMEM) (Gibco, Cat. No. 42430-025) supplemented with 10% Fetal Bovine Serum (FBS) (life technologies, Cat. No. 16140, Lot No. 1797306A). 0.3×10⁵ Daudi cells were added in 200 μl of 1×DMEM with 10% FBS to each well of a round-bottom 96-well plate (Greiner Bio-One, CELLSTAR®, Cat. No. 650185). Plates were centrifuged 5 minutes at 1700 rpm and supernatants were flicked off. Cells were washed once with 200 μL of 4° C. cold FACS buffer (eBioscience, Cat. No. 00-4222-26). All samples were resuspended in 50 μL/well of 4° C. cold FACS buffer containing the bispecific antigen binding molecules (primary antibody) or isotype control antibody DP47 at the indicated range of concentrations (in duplicates) and incubated for 120 minutes at 4° C. Afterwards the cells were washed three times with 200 μL 4° C. cold FACS buffer. Cells were further stained with 25 μL/well of 4° C. cold secondary antibody solution (1:50 dilution of secondary antibody) containing R-Phycoerythrin (PE) conjugated AffiniPure F(ab′)₂ Fragment Goat Anti-Human IgG, Fcγ Fragment Specific (Jackson ImmunoResearch, Cat. No. 109-116-098) and incubated for 60 minutes at 4° C. in the dark. Cells were washed with 200 μl FACS buffer and resuspended in 85 μL/well FACS-buffer containing 0.2 μg/mL DAPI (Roche, Cat. No. 10236276001) and acquired the same day using a 5-laser LSR-Fortessa (BD Bioscience with DIVA software). Data analysis was performed using the FlowJo version 10 software (FlowJo LLC).

[6] = target: T2, Human CD40 extracellular domain with C-terminal His-AviTag (human); experiment: SPR (Biacore), antibody captured by anti-human F(ab')2, CD40 ECD as analyte, 1:1 model
T2 construct: analyte in solution in the SPR assays; also called recombinant human CD40_ECD
Experimental: Around 12000 resonance units (RU) of the capturing system (10 μg/ml goat anti human F(ab)′₂; Order Code: 28958325; GE Healthcare Bio-Sciences AB, Sweden) were coupled on a CM5 chip (GE Healthcare BR-1005-30) at pH 5.0 by using an amine coupling kit supplied by the GE Healthcare. The sample and system buffer was PBS-T (10 mM phosphate buffered saline including 0.05% Tween20) pH 7.4. The flow cell was set to 25° C.—and the sample block set to 12° C.—and primed with running buffer twice. The antibody was captured by injecting a 50 nM solution for 30 sec at a flow of 5 μl/min. Association was measured by injection of human CD40 extra cellular domain or cynomolgus monkey CD40 extracellular domain in various concentrations in solution for 300 sec at a flow of 30 μl/min starting with 300 nM in 1:3 dilutions. The dissociation phase was monitored for up to 1200 sec and triggered by switching from the sample solution to running buffer. The surface was regenerated by 60 sec washing with a Glycine pH 2.1 solution at a flow rate of 30 μl/min. Bulk refractive index differences were corrected by subtracting the response obtained from a goat anti human F(ab′)₂ surface. Blank injections are also subtracted (=double referencing). For calculation of apparent KD and other kinetic parameters the Langmuir 1:1 model was used. The apparent Kd was calculated using the BIACORE® B4000 evaluation software (version 1.1).

[7] = target: T3, mouse fibroblast activation protein (mFAP) (mouse, UniProt P97321 1-761); experiment: flow cytometry on NIH/3T3-mFAP cells (3T3_mFAP), PE-labelled anti-human IgG Fcgamma F(ab')2 secondary, MFI baseline corrected
T3 construct: expressed on transfected NIH/3T3-mFAP clone 26 cells; also called murine FAP; mouse FAP
Experimental: (§2) NIH/3T3-huFAP clone 19 and NIH/3T3-mFAP clone 26 were generated by the transfection of the mouse embryonic fibroblast NIH/3T3 cell line (ATCC CRL-1658) with the expression vector pETR4921 to express under 1.5 μg/mL Puromycin selection huFAP or mFAP, respectively.
as §1, with “NIH/3T3-huFAP, NIH/3T3-mFAP or NIH/3T3-wt” for “The binding to cell surface CD40 was tested using Daudi cells, a human B lymphoblast cell line with high expression levels of human CD40 (ATCC CCL-213). Daudi”, “1797306A). For the NIH/3T3-huFAP and NIH/3T3-mFAP cells 1.5 μg/mL Puromycin (Gibco, Cat. No. A11138-03) was added to the medium for selection of FAP-expressing cells. NIH/3T3 cells were removed from the plate by using enzyme-free Cell Dissociation Buffer (Gibco, Cat. No. 13151014).” for “1797306A).”, “NIH/3T3-huFAP clone 19, NIH/3T3-mFAP clone 26 or NIH/3T3-wt” for “Daudi cells”, “1×DMEM” for “1×DMEM with”, “using” for “using a”

[8] = target: T4, His-tagged human dimeric FAP (recombinant FAP_ECD) (human, UniProt Q12884 27-760); experiment: method not stated; SPR as in Example 5.3.2 presumed
T4 construct: also called hu FAP ectodomain + poly-lys-tag + his6-tag

[9] = target: T5, human fibroblast activation protein (huFAP) (human, UniProt Q12884 1-760); experiment: flow cytometry, NIH/3T3-huFAP clone 19 cells, PE anti-human Fc F(ab')2
T5 construct: expressed on transfected NIH/3T3-huFAP clone 19 cells; also called human FAP
Experimental: as §2
as §1, with “NIH/3T3-huFAP, NIH/3T3-mFAP or NIH/3T3-wt” for “The binding to cell surface CD40 was tested using Daudi cells, a human B lymphoblast cell line with high expression levels of human CD40 (ATCC CCL-213). Daudi”, “1797306A). For the NIH/3T3-huFAP and NIH/3T3-mFAP cells 1.5 μg/mL Puromycin (Gibco, Cat. No. A11138-03) was added to the medium for selection of FAP-expressing cells. NIH/3T3 cells were removed from the plate by using enzyme-free Cell Dissociation Buffer (Gibco, Cat. No. 13151014).” for “1797306A).”, “NIH/3T3-huFAP clone 19, NIH/3T3-mFAP clone 26 or NIH/3T3-wt” for “Daudi cells”, “1×DMEM” for “1×DMEM with”, “using” for “using a”

[10] = target: T4, His-tagged human dimeric FAP …; experiment: SPR (Biacore T200), His-tagged dimeric huFAP ECD captured by anti-His, antibody as analyte, 1:1 fit (avidity)
Experimental: The capacity of the bispecific constructs to bind human FAP was assessed by surface plasmon resonance (SPR). All SPR experiments were performed on a BIACORE® T200 (BIACORE®) at 25° C. with HBS-EP as running buffer (0.01 M HEPES pH 7.4, 0.15 M NaCl, 3 mM EDTA, 0.005% Surfactant P20, (BIACORE®).
His-tagged human dimeric FAP (recombinant FAP_ECD) was captured on a CM5 chip (GE Healthcare) immobilized with anti-His antibody (Qiagen Cat. No. 34660) by injection of 500 nM huFAP for 60 s at a flow rate of 10 uL/min, 10 nM murine FAP for 20 s at a flow rate of 20 uL/min and 10 nM cynoFAP for 20 s at a flow rate of 20 uL/min. Immobilization levels for the anti-His antibody of up to 18000 resonance units (RU) were used. Following the capture step, the bispecific antibodies as well as control molecules were immediately passed over the chip surface at a concentration ranging from 0.78-100 nM with a flow rate of […] for 280 s and a dissociation phase of 180 s. Bulk refractive index differences were corrected for by subtracting the response obtained in a reference flow cell, where no FAP was immobilized. Avidity was determined using the Langmuir 1:1 curve fitting. For bivalent binding the same 1:1 fitting was used leading to an apparent KD value.

T1 sequence (P25942 21-277 limits assumed): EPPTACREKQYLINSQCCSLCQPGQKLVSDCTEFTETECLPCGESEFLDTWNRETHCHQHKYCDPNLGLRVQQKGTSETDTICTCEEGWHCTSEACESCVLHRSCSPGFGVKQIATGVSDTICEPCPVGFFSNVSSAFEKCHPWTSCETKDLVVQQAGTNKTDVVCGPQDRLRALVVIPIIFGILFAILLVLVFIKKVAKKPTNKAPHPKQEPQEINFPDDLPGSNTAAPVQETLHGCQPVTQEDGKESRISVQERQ
T2 sequence (chain, as listed by the source limits assumed): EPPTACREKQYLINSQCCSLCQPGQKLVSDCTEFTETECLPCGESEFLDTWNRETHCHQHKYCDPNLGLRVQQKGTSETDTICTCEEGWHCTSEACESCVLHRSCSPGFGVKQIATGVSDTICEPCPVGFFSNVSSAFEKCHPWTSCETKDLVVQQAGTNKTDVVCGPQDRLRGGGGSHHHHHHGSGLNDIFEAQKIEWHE
T3 sequence (P97321 whole entry): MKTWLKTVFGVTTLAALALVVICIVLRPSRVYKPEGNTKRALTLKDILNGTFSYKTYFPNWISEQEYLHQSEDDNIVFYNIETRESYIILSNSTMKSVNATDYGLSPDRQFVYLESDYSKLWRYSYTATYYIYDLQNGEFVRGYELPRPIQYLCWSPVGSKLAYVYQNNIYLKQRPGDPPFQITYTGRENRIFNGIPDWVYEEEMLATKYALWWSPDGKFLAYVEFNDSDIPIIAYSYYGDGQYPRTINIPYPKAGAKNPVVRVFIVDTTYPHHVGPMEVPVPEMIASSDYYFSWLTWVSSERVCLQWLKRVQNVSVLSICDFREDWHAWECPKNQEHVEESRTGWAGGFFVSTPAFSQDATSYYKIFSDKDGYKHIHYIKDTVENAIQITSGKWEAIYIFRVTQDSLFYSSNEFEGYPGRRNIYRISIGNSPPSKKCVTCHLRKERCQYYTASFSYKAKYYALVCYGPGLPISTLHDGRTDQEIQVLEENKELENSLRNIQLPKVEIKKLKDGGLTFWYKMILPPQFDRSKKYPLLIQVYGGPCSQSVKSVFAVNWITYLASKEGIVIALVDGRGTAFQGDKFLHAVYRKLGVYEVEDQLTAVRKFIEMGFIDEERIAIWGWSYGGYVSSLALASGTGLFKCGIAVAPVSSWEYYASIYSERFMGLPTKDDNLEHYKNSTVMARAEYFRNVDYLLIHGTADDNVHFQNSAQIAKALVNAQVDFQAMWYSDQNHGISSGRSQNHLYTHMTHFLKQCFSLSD

Binder | EC50, activation of human Daudi cells (CD70 expression) with FAP-coated Dynabeads (human CD40 [1]) [nM] | EC50, activation of human B cells with FAP-coated Dynabeads, increase of CD86 expression (human CD40 [2]) [nM] | EC50, activation of HEK-Blue CD40L cells (SEAP) with murine FAP-coated Dynabeads (human CD40 [3]) [nM] | EC50 (human CD40 [4]) [µg/mL] | EC50 (human CD40 [5]) [nM] | Kd [6] [nM] | koff [6] [s⁻¹] | kon [6] [M⁻¹ s⁻¹] | binding result [7] | Kd [8] [nM] | EC50 [9] [nM] | Kd [10] [nM] | koff [10] [s⁻¹] | kon [10] [M⁻¹ s⁻¹] | EC50 (read off the curve) [7] [nM]
B1 | 0.756 | 0.072 | 0.125 | 0.09 | 0.104 | 4.6 | 0.00781 | 1.69e+06 | no binding (tested: 500 nM) | – | – | – | – | – | –
B2 | – | – | – | – | – | – | – | – | – | 1.5 | 7.99 | 6 | 0.00174 | 291000 | ~8

Source: US20250179205A1 (Hoffmann-La Roche, published 2025)
